In patent US20160058829A1, “ANTI-FIBROTIC PEPTIDES AND THEIR USE IN METHODS FOR TREATING DISEASES AND DISORDERS CHARACTERIZED BY FIBROSIS” (Thrasos Innovation, Inc., priority 2011, published 2016):
“Also recorded” adds a separate entry of the source. Read-outs that look alike come from different tables or passages of the source. Positions of bridges follow the written chain, without caps; N, C: chain ends.

T1: BMPR-II (Homo sapiens, UniProt Q13873)
T1 sequence (Q13873 27-1038): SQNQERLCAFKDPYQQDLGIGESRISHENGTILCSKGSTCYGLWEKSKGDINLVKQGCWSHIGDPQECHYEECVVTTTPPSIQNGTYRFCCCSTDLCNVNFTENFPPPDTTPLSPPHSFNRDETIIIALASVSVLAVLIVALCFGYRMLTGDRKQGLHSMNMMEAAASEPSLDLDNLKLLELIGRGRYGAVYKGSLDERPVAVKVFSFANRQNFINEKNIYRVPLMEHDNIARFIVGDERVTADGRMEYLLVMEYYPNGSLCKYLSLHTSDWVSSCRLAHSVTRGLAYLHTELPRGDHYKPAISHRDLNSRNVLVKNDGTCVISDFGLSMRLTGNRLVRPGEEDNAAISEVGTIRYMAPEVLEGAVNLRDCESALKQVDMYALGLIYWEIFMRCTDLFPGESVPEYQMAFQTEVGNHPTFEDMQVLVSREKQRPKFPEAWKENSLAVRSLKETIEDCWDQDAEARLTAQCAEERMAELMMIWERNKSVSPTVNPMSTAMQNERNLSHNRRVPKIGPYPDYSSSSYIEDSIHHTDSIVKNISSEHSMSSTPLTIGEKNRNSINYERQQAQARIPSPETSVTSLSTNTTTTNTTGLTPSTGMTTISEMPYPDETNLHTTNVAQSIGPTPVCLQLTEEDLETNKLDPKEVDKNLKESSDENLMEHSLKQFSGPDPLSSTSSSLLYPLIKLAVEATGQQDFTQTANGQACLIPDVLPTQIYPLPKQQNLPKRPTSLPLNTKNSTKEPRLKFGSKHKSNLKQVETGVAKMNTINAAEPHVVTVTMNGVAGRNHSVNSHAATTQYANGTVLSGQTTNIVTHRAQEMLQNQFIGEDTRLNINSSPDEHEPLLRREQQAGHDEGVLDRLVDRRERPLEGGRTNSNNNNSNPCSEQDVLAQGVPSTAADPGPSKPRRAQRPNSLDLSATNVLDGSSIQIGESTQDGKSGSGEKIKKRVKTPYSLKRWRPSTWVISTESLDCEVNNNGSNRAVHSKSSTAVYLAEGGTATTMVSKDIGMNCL

T2: Alk-6 (Homo sapiens, UniProt O00238)
T2 construct: Highly purified extra-cellular domain (ECD) of Alk-3 or Alk-6 (expressed as a fusion protein with Fc domain) served as a receptor
T2 sequence (O00238 14-126 limits assumed): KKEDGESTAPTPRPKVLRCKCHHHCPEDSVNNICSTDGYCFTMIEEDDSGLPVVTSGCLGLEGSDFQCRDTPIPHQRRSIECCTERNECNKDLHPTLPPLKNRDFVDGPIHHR


Tests used:
BMPR-II = target: T1, BMPR-II; experiment: BMP type II receptor binding
Source text: FIG. 31 provides a table indicating a comparison between THR-123 (SEQ ID NO: 1) and BMP-7 for binding to Type I and Type II BMP receptors. Like BMP-7, THR-123 binds to both ALK2 and ALK3 (type I) and BMPR-II (type II) BMP receptors. However, BMP-7, but not THR-123 binds to ALK6 (type I) receptor.

NP-1 cells [1] = experiment: TGF-β-induced apoptosis in NP-1 cells (Annexin V); format: cell-based; conditions: TGF-β 3 ng/ml 24 h; BMP-7 1 μg/ml, THR-123 10 μM
Description: FIG. 48A-FIG. 48D THR-123 inhibits TGF-β-induced apoptosis in NP-1 cells. NP-1 cells are incubated with TGF-β (3 ng/ml) for 24 h in the presence of indicated molecules. Apoptosis was analyzed by Annexin V labeling (Roche). Representative merged picture (Green: Annexin V and bright field image) of cells treated with TGF-β only (FIG. 48A), TGF-β+BMP-7 (1 μg/ml) (FIG. 48B), TGF-β+THR-123 (10 μM) (FIG. 48C) and TGF-β+ctrl peptide (FIG. 48D).

Alk-3 = target: T3, Alk-3 (Homo sapiens, UniProt P36894); experiment: Radio-ligand (125I-BMP7) receptor binding assay, Alk-3 ECD
T3 construct: Highly purified extra-cellular domain (ECD) of Alk-3 or Alk-6 (expressed as a fusion protein with Fc domain) served as a receptor
T3 sequence (P36894 24-152 limits assumed, species assumed): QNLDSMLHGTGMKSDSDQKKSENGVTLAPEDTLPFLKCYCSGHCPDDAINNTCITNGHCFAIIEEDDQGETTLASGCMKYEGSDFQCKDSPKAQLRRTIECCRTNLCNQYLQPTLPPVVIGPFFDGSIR
Source text: (§1) FIG. 45A-FIG. 45G Pharmacokinetics of THR-123. FIG. 45A. BMP7 structure figure with the residue weights resulting from the analysis mapped on to it. FIG. 45B, FIG. 45C. Radio-ligand receptor binding assays specific for individual type I receptors, Alk-3 (FIG. 45B) and Alk-6 (FIG. 45C). Highly purified extra-cellular domain (ECD) of Alk-3 or Alk-6 (expressed as a fusion protein with Fc domain) served as a receptor. In each assay purified receptor was immobilized on each well and peptide analog or unlabeled BMP7 was added, followed by ^125I-labeled BMP7. Radiolabeled BMP7 complex was counted in an auto-gamma counter. Results were expressed as the mean±s.e.m. […] Concentration of THR-123 in systemic circulation of Wistar rats following iv injection of THR-123 (^125I-Tyr) via the tail vein determined by total radioactivity measurement. […] Six hours after intravenous administration of ^125I labeled-THR-123 in rats at a dose of 6.25 mg/kg-body weight, tissues were harvested and analyzed by automatic gamma well counter. […] Radioactivity of orally administrated ^125I labeled-THR-123 at a dose of 5 mg/kg body weight was localized in the kidney between 1 and 6 hours after administration and peaked at around 3 hours.
(§2) First, specific affinity of the extra cellular domains (ECD) of the several type I receptors of BMPs to THR-123 was analyzed. […]

Alk-6 = target: T2, Alk-6; experiment: Radio-ligand (125I-BMP7) receptor binding assay, Alk-6 ECD
Source text: as §1, §2

NP-1 cells [2] = experiment: Hypoxia-induced apoptosis in NP-1 cells (Annexin V); format: cell-based; conditions: 2.5% O2 24 h; BMP-7 1 μg/ml, THR-123 10 μM
Description: FIG. 49A-FIG. 49D THR-123 inhibits Hypoxia-induced apoptosis in NP-1 cells. NP-1 cells are incubated with hypoxia (2.5% O2) for 24 h in the presence of indicated molecules. Apoptosis was analyzed by Annexin V labeling (Roche). Representative merged picture (Green: Annexin V and bright field image) of cells treated with hypoxia only (FIG. 49A), hypoxia+BMP-7 (1 μg/ml) FIG. 49(B), hypoxia+THR-123 (10 μM) (FIG. 49C) and hypoxia+ctrl peptide (FIG. 49D).

Row | Molecule | binding to BMPR-II (BMPR-II) | TGF-β-induced apoptosis (NP-1 cells [1]) | binding to ALK3 (competition with 125I-BMP7) (Alk-3; listed as THR-123) | binding to ALK6 (competition with 125I-BMP7) (Alk-6; listed as THR-123) | hypoxia-induced apoptosis (NP-1 cells [2]) | binding to ALK3 (competition with 125I-BMP7) (Alk-3) | binding to ALK6 (competition with 125I-BMP7) (Alk-6)
1 | (H)-CYFDDSSNVLCKKYRS-(OH) (H-CYFDDSSNVLCKKYRS-OH; disulfide 1-11; SMILES CC(C)C[C@@H]1NC(=O)[C@H](C(C)C)NC(=O)[C@H](CC(N)=O)NC(=O)[C@H](CO)NC(=O)[C@H](CO)NC(=O)[C@H](CC(=O)O)NC(=O)[C@H](CC(=O)O)NC(=O)[C@H](Cc2ccccc2)NC(=O)[C@H](Cc2ccc(O)cc2)NC(=O)[C@@H](N)CSSC[C@@H](C(=O)N[C@@H](CCCCN)C(=O)N[C@@H](CCCCN)C(=O)N[C@@H](Cc2ccc(O)cc2)C(=O)N[C@@H](CCCNC(=N)N)C(=O)N[C@@H](CO)C(=O)O)NC1=O) [SEQ ID NO: 1] | binds | decreased apoptosis | competes with BMP7; also recorded: binds | absolutely no competition; also recorded: does not bind | decreased apoptosis |  | 
2 | BMP-7: bone morphogenetic protein-7; recombinant human BMP7, positive control (protein) STGSKQRSQNRSKTPKNQEALRMANVAENSSSDQRQACKKHELYVSFRDLGWQDWIIAPEGYAAYYCEGECAFPLNSYMNATNHAIVQTLVHFINPETVPKPCCAPTQLNAISVLYFDDSSNVILKKYRNMVVRACGCH | binds | decreased apoptosis |  |  | decreased apoptosis | binds | binds
